The record followed here is patent publication US20250026849A1 (ARCELLX, published 2025).

Positions count from the first letter of the chain named.

The chains are these.
B1: D domain of SEQ ID NO: 434 (designed binder)
chain: MGSWQEFTMRLDAIYNRLETLGGSEAELAAFEKEIAAFESELQAYKGKGNPEVEWLRQSAANIRSELQAYRHN
B2: D domain of SEQ ID NO: 478 (designed binder)
chain: MGSWMFFKEDLADIKWALEALGGSEAELAFFEEEIALFEQHLQQYKGKGNPEVEALRKEAAAIRDELQAYRHN
B3: D domain of SEQ ID NO: 510 (designed binder)
chain: B2 chain with M5S, F6W, W16F, A17E, F30W, E33L, E34D, L37D, H41A
B4: D domain of SEQ ID NO: 502 (designed binder)
chain: MGSWEEFKEDLAEIKVWLEALGGSEAELAWFEMGIADFEDGLQFYKGKGNPEVEALRKEAAAIRDELQAYRHN
B5: D domain of SEQ ID NO: 503 (designed binder)
chain: B4 chain with E5H, E6W, E13N, V16D, M33D, G34N, D40G, G41D, F44V
B6: D domain of SEQ ID NO: 512 (designed binder)
chain: B4 chain with E5W, V16W, W17F, M33H, G34D, D37K, D40F, G41E, F44Y
B7: D domain of SEQ ID NO: 499 (designed binder)
chain: MGSWIFFKEQLAIIKWELEALGGSEAELAWFEDDIAAFEDDLQFYKGQGNPEVEALRKEAAAIRDELQAYRHN
B8: D domain of SEQ ID NO: 465 (designed binder)
chain: MGSWFEFYERLDAINWRLFALGGSEAELAAFEKEIAAFESELQAYKGKGNPEVEALRGEAAAIREDLQAYRHN
B9: D domain of SEQ ID NO: 466 (designed binder)
chain: B8 chain with F5N, Y8E, E9D, N15W, G58V, A62F, E65T, D66M
B10: D domain of SEQ ID NO: 490 (designed binder)
chain: MGSWNSFKDELAEIKAELEALGGSEAELAFFEEDIAWFEEHLQQYKGKGNPEVEALRKEAAAIRDELQAYRHN
B11: D domain of SEQ ID NO: 491 (designed binder)
chain: B10 chain with N5D, S6L, D9W, A16L, E17G, F30E, E33Y, H41D, Q44D
B12: D domain of SEQ ID NO: 486 (designed binder)
chain: MGSWSFFKEELANIQVYLEALGGSEAELAWFEEDIADFEEDLQHYKGKGNPEVEALRKEAAAIRDELQAYRHN
B13: D domain of SEQ ID NO: 487 (designed binder)
chain: B10 chain with N5E, S6F, D9Y, E13D, A16D, F30W, W37T, H41W, Q44G
B14: D domain of SEQ ID NO: 508 (designed binder)
chain: MGSWSWFKEDLAEIKMELEALGGSEAELAYFEWYIAEFEFQLQHYKGKGNPEVEALRKEAAAIRDELQAYRHN
B15: D domain of SEQ ID NO: 511 (designed binder)
chain: B14 chain with E13S, M16A, E17V, Y30F, W33S, Y34D, F40Q, Q41E, H44Y
B16: D domain of SEQ ID NO: 476 (designed binder)
chain: MGSWGYFKDDLAWIKGELEALGGSEAELAEFEWFIAVFEEDLQVYKGKGNPEVEALRKEAAAIRDELQAYRHN
B17: D domain of SEQ ID NO: 468 (designed binder)
chain: MGSWHFFKDDLAWIKNELEALGGSEAELAMFEDDIAMFETMLQSYKGKGNPEVEALRKEAAAIRDELQAYRHN
B18: D domain of SEQ ID NO: 475 (designed binder)
chain: B17 chain with H5G, F6H, D9Q, N16D, E17T, M30F, T40M, M41E, S44D
B19: D domain of SEQ ID NO: 469 (designed binder)
chain: B17 chain with F6W, D9T, W13D, N16E, M37E, T40E, M41F, S44M
B20: D domain of SEQ ID NO: 474 (designed binder)
chain: MGSWIVFKDDLADIKRWLEALGGSEAELAMFEDEIADFEWQLQDYKGKGNPEVEALRKEAAAIRDELQAYRHN
B21: D domain of SEQ ID NO: 500 (designed binder)
chain: MGSWEFFKEVLAEIKYDLEALGGSEAELAWFETDIAGFEIDLQVYKGKGNPEVEALRKEAAAIRDELQAYRHN
B22: D domain of SEQ ID NO: 501 (designed binder)
chain: B4 chain with E5V, E6F, E13T, V16N, W17D, G34M, D40A, G41D, F44Y
B23: D domain of SEQ ID NO: 484 (designed binder)
chain: MGSWYWFKQDLAHIKSMLEALGGSEAELAWFEEDIADFESELQEYKGKGNPEVEALRKEAAAIRDELQAYRHN
B24: D domain of SEQ ID NO: 488 (designed binder)
chain: B10 chain with N5Q, S6T, E13H, A16W, F30W, E33W, W37N, H41E, Q44E
B25: D domain of SEQ ID NO: 492 (designed binder)
chain: B23 chain with Y5I, W6F, H13E, S16L, M17N, E33D, D37W, E41H, E44D
B26: D domain of SEQ ID NO: 485 (designed binder)
chain: B23 chain with Y5T, W6F, Q9W, H13D, S16A, M17N, I35L, D37G, S40A
B27: D domain of SEQ ID NO: 509 (designed binder)
chain: B14 chain with E9Q, E13D, M16I, E17Q, Y30W, Y34D, Q41E, H44D
B28: D domain of SEQ ID NO: 489 (designed binder)
chain: B10 chain with N5Y, S6W, D9E, E13F, A16W, F30L, W37Y, H41M, Q44E
B29: D domain of SEQ ID NO: 467 (designed binder)
chain: MGSWFYFKDDLADINYMLEALGGSEAELAMFEDDIAGFELTLLKYKGKGNPEVEALRKEAAAIRDELQAYRHN
B30: D domain of SEQ ID NO: 504 (designed binder)
chain: MGSWFWFKEDLAFIKEDLEALGGSEAELAWFEDGIAFFEWDLQDYKGKGNPEVEALRKEAAAIRDELQAYRHN
B31: D domain of SEQ ID NO: 506 (designed binder)
chain: B30 chain with F5H, F13I, E16Q, W30T, D33Q, G34W, F37E, D44E
B32: D domain of SEQ ID NO: 507 (designed binder)
chain: B30 chain with F5N, F13I, E16M, D33H, G34N, F37G, W40F, D41E, D44G
B33: D domain of SEQ ID NO: 505 (designed binder)
chain: B30 chain with F5Q, F13E, E16H, G34F, F37Q, W40F, D44W
B34: D domain of SEQ ID NO: 470 (designed binder)
chain: MGSWWLFKDDLAEIKYWLEALGGSEAELAFFEDDIAEFERGLQIYKGKGNPEVEALRKEAAAIRDELQAYRHN
B35: D domain of SEQ ID NO: 481 (designed binder)
chain: B34 chain with W5T, L6F, D9N, Y16D, F30D, D33W, R40Y, G41S, I44E
B36: D domain of SEQ ID NO: 498 (designed binder)
chain: B34 chain with W5Y, L6V, D10E, Y16Q, W17F, F30W, R40T, G41Q, I44H
B37: D domain of SEQ ID NO: 482 (designed binder)
chain: B20 chain with I5T, V6Y, R16Q, M30F, D33I, D37E, W40E, Q41E, D44E
B38: D domain of SEQ ID NO: 471 (designed binder)
chain: B34 chain with W5Y, L6E, Y16E, D33L, E37D, R40W, G41L, I44L
B39: D domain of SEQ ID NO: 493 (designed binder)
chain: B34 chain with W5H, D9W, D10T, W17E, F30W, E37T, R40E, G41E, I44W
B40: D domain of SEQ ID NO: 473 (designed binder)
chain: B20 chain with V6L, D13W, R16E, W17T, M30F, E34N, W40E, D44G
B41: D domain of SEQ ID NO: 479 (designed binder)
chain: B2 chain with M5T, D13G, A17E, F30W, E33D, Q40E, H41E, Q44E
B42: D domain of SEQ ID NO: 480 (designed binder)
chain: B2 chain with M5V, E9D, W16D, A17E, E33I, E34A, Q40W, H41E, Q44E
B43: D domain of SEQ ID NO: 483 (designed binder)
chain: B20 chain with I5T, D9Y, R16W, M30D, D33E, D37E, W40E, Q41E, D44E
B44: D domain of SEQ ID NO: 494 (designed binder)
chain: MGSWVTFKDELADIKDFLEALGGSEAELAFFEVDIAEFEAELQFYKGKGNPEVEALRKEAAAIRDELQAYRHN
B45: D domain of SEQ ID NO: 496 (designed binder)
chain: B44 chain with V5E, D9Y, D13E, F17Y, F30W, V33D, A40F, F44Y
B46: D domain of SEQ ID NO: 495 (designed binder)
chain: B44 chain with T6Y, F30E, V33E, E37T, A40Y, E41D, F44W
B47: D domain of SEQ ID NO: 497 (designed binder)
chain: B44 chain with V5N, D9Y, D13E, D16H, F30M, V33D, E37M, A40W, F44E
B48: D domain of SEQ ID NO: 472 (designed binder)
chain: MGSWQWFKDDLAYIKETLEALGGSEAELALFEDMIADFEFELQWYKGKGNPEVEALRKEAAAIRDELQAYRHN
B49: D domain of SEQ ID NO: 477 (designed binder)
chain: B16 chain with G5Y, Y6W, W13E, E17L, W33D, F34E, E40Q, D41E, V44E

The test concerns the target T1, CD123 (Homo sapiens (Human), UniProt P26951 19-305, limits assumed).
T1 construct: The CD123 construct used in the ELISA is not described; also called CD123-Signal
T1 sequence: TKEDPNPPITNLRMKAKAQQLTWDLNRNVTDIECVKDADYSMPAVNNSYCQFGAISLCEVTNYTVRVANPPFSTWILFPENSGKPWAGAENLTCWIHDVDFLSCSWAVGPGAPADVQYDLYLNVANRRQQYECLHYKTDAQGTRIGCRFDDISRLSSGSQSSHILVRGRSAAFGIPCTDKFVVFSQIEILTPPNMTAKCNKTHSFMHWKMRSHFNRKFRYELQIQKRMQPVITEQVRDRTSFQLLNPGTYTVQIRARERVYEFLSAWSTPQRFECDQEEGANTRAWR
The experiment in a line: ELISA. The arrangement: unit not given here. (ELISA stands for enzyme-linked immunosorbent assay.)
The molecule B1 returned an ELISA_avg of 13.7. Next, B2: 3.2; B3: 6.8; B4: 4.3. With B5, the ELISA_avg came out at 3.3. With B6, the ELISA_avg was found to be 5.1. B7 came in with an ELISA_avg of 15. Next, B8: 3; B9: 5.1; B10: 3.3.

B11 gave an ELISA_avg of 3.4.

With B12, the ELISA_avg turned out to be 3.8.

For the molecule B13, the ELISA_avg stood at 3.4. On to B14, for which the ELISA_avg was determined as 4.8. B15: the ELISA_avg amounted to 6.9. Molecule B16 displayed an ELISA_avg of 4.5.

Consider B17, for which the ELISA_avg came to 3.2. The value for B18 was 4.9.

B19 had an ELISA_avg of 3.5. Molecule B20 came in with an ELISA_avg of 3.9.

With B21, the ELISA_avg was found to be 8.2. On to B22, for which the ELISA_avg stood at 3.1. In turn, B23 showed an ELISA_avg of 3.3. In turn, B24 showed an ELISA_avg of 5.5.

The molecule B25 registered an ELISA_avg of 3.8. As for B26, the ELISA_avg was found to be 4.8. B27 had an ELISA_avg of 4. For B28, the ELISA_avg was 9.4. Molecule B29 had an ELISA_avg of 3.7. For B30, the ELISA_avg was found to be 13.7. For B31, the ELISA_avg was found to be 5.5. Molecule B32 registered an ELISA_avg of 3.1. For the molecule B33, the ELISA_avg came to 3.8. Next, B34: 3.3; B35: 3.9. B36 displayed an ELISA_avg of 9.9. B37: the ELISA_avg was 4.6. Next, B38: 3.8; B39: 4; B40: 6.

In turn, B41 showed an ELISA_avg of 7.

The molecule B42 yielded an ELISA_avg of 8.8.

B43: the ELISA_avg is 3.9. B44 displayed an ELISA_avg of 7.6. The molecule B45 returned an ELISA_avg of 4.4. Next, B46: 4.6; B47: 5.

In turn, B48 showed an ELISA_avg of 6.3.

B49 returned an ELISA_avg of 10.4.
